Experimental data taken from the supplement of paper PMC9170038.

Test system: K4 kissing-loop RNA reporter
Test: apparent KD of K4 kissing-loop reporter; higher = weaker reporter binding
Settings: Eterna round: R107
Description: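 RNA-MaP round R107: designed RNA switches with theophylline, tryptophan, arginine or FMN aptamers are transcribed on-chip within common flanks. They are titrated with a labelled K4 kissing-loop RNA reporter in RNA-MaP buffer (100 mM Tris pH 7.5, 80 mM KCl, 4 mM MgCl2), without ligand or with the indicated ligand. Median apparent KD per design.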

[1] = input ligand: theophylline 20 uM
[2] = input ligand: tryptophan 2.4 mM
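Also: bound reporter read as fluorescence of individual clusters on recovered sequencing chips by microscopy, with normalized cluster intensities fitted with a binding model.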

Sequence	apparent KD of K4 kissing-loop reporter (input ligand: FMN 200 uM)	apparent KD of K4 kissing-loop reporter (input ligand: arginine 13.2 mM)	apparent KD of K4 kissing-loop reporter (input ligand: none)	apparent KD of K4 kissing-loop reporter [1]	apparent KD of K4 kissing-loop reporter [2]
AAAAUUAAGGCCGAAUUAACUUCUUGCAUACGAGGACCGGUACGGCCGCCACUCGAGUCAAGUGAUGUUUGACAAUCUAUUAUUA [JR_ExcTryptoA_Sub010]	81.2 nM	124 nM	110 nM	138 nM	128 nM
AAAAUUGCGGUCGAAAGAACUUCUUGCAUACGAGGACCGGUACGGCCGCCACUCGAGUCAAGUGAUGUUUGAUAAUCUAUUAUUA [JR_ExcTryptoA_Sub012]	151 nM	225 nM	215 nM	296 nM	212 nM
AAACAUCACUGGGAGUGAUGUUCUCAGUGACGAGGACCGGUACGGCCGCCACUCGCGAGAGAUAUAGUCAAGUAAUGACUGCAUU [Excl Tryptophan A V9]	365 nM	309 nM	407 nM	375 nM	413 nM
AAACAUUGGUCGGAUACCAGUUAGACCGAUAGGUCAAAACUGGAGUGAUGUUCCUAAAAUAACCCUUGGCAGCCGACCGAUGAAA [MAT - Same State Theophlline B - Mod of Eli - D5]	954 nM	599 nM	787 nM	905 nM	808 nM
AAACAUUGGUCUGAUACCAGCUGAUCGGAAACGAUCUUGCUGGAGUGAUGUUCCAGGAAAAGCCCUUGGCAGCAGACCGAUGAAA [MAT - Same State Theophlline B - Mod of Eli - D24]	938 nM	513 nM	1030 nM	715 nM	962 nM
AAACAUUGGUCUGAUACCAGUUAGACCGAUAGGUCAAAACUGGAGUGAUGUUCCUAAAAUAACCCUUGGCAGCAGACCGAUGAAA [MAT - Same State Theophlline B - Mod of Eli - D4]	3640 nM	285 nM	596 nM	439 nM	552 nM
AAACGUUGGUGCGAUACCAGCUGAUCGGAAACGAUCUUGCUGGAGUGAUGUUCCAGGAAAAGCCCUUGGCAGCGCACCGACGAAA [MAT - Same State Theophlline B - Mod of Eli - D26]	950 nM	659 nM	1060 nM	869 nM	928 nM
AAAGAUCUUCUAGAAACUAGAAGAUCAAGAGAGGAUAUCCGAAUUCGGAGAAGGCUCGCUAAGUGAUGUUUGGACCCAAAGGGAA [AK3.1 SS FMN A]	1100 nM	984 nM	1180 nM	753 nM	1130 nM
AAAGUGUCAGCACGAGUGAUGUUCGACGAUACCAGCCUCGAUAGAGGCCCUUGGCAGCGUAAACCAAGGGCUGGCACAAAAUAAA [#SwitchBubble 6 #K4Early]	1050 nM	975 nM	1350 nM	439 nM	1360 nM
AAAUAUUCGAGUGAUGUUCGAUAAAUAUCAGAGGAUAUGCUUAAAAGCAGAAGGCUGUAUUUCUAUUUGUUAUGUAAUUUUAUAA [JR_SSFMNA_Sub021]	125 nM	160 nM	135 nM	154 nM	91.4 nM
AAAUGACAAGUAAUAAAGAAAAGCGGCGAUACCAGUAAGAACGUAUACCCUUGGCAGCGCAUAUUAGAGUGAUGUUCUAAUCCGA [theeternabot_sameState_KL_Theo_A_25]	129 nM	174 nM	148 nM	220 nM	99.3 nM
AACGCUGGAUGAAUAACAUCUAGCGAAAUUCGAGGACCGGUACGGCCGCCACUCGAGCUAACUGCGAGUGAUGUUCGAUAAUAAA [Mat - Mod of OpenEnded 3 - D5]	228 nM	466 nM	327 nM	469 nM	71.4 nM
AACUGUCAAGGACAACAUUACUGCAGUGAUACCAGCAUCGAAAGAUGCCCUUGGCAGCACCAACUUGCAGUGAUGUUGCAAGUAA [BrourdMod 5 - Jieux - Exclusion - Theophylline A]	241 nM	203 nM	216 nM	188 nM	220 nM
AACUUAAUUUAUAAGCAGUGAUGUUGCUCACGAGGACCGGUACGGCCGCCACUCGAUCGGACUUAGGUCUUCAAUUAUUUCAUUA [JR_ExcTryptoA_Sub017]	149 nM	192 nM	163 nM	199 nM	145 nM
AAGAGCUAGGCGGCCGCCACUAGUUGUGAACACGUACAAGCCAGUGAUGUUGGUAUGAUGGACGGUAGGACCGGGCCUAGCUGAA [Exclusion - Tryptophan B (Freestyle 14)]	227 nM	271 nM	276 nM	267 nM	294 nM
AAGCAGUCACUCGACGCCAUCGAAGAUGGGCGAGGACCGGUACGGCCGCCACUCGGAGUGAUGUUCUGAUGACUGCAAAAUAAAA [MatMod 8 - Jieux - Exclusion - Tryptophan A]	119 nM	52.7 nM	118 nM	156 nM	94.3 nM
AAGGCAUUCAGAAGGAGCGUGGUUUAAUCAUUAAUAUUUUUUACGAGUGAUGUUCGUAAUUCACAGGUAGGUCGCUGAAUAAUAA [JR_ExcArginiB_Sub008]	123 nM	136 nM	128 nM	134 nM	114 nM
AAGGCCAGUGAUGUUGGCUUAACCUUCGAUACCAGAACCGAUCGUUUCCCUUGGCAGCGAACACAAUACCUCACAGCGUUAAGUA [theeternabot_sameState_KL_Theo_A_8]	125 nM	134 nM	125 nM	149 nM	114 nM
AAGGCGUCGAGUUUGGUGGCGCCAACAGAUACCAGAUUACCUCCAAUCCCUUGGCAGCUGGCUUGAGAGUGAUGUUUUCAAAAGU [theeternabot_sameState_KL_Theo_A_33]	532 nM	447 nM	627 nM	528 nM	349 nM
AAGGGCUAGGCGGCCGCCACUGGUUGUGAACACAUACGAGCCAGUGAUGUUGGUAUUGUGUGCGGCAGGACCGGGCCUAGCCGAA [Exclusion - Tryptophan B (Freestyle 23)]	360 nM	299 nM	346 nM	300 nM	322 nM

Sequence	apparent KD of K4 kissing-loop reporter (input ligand: FMN 200 uM)	apparent KD of K4 kissing-loop reporter (input ligand: arginine 13.2 mM)	apparent KD of K4 kissing-loop reporter (input ligand: none)	apparent KD of K4 kissing-loop reporter [1]	apparent KD of K4 kissing-loop reporter [2]
AAGGUAUCACCAACUUGUAACAUAGGUGAUACCAGCAUCGAAAGAUGCCCUUGGCAGCACCAACUUGCAGUGAUGUUGCAAGUAA [(T)'-(H)'-(T1)-(T2)-(H1)-(H2)_Design11]	166 nM	140 nM	152 nM	152 nM	144 nM
AAGGUCACCACUACAGUGAUGUUGUAGGAGCAGGAUAUGCAGAAAUGCAGAAGGGCUCGCUCCAGGUGACCGAAUGAAACAUUCA [Omei KL FMN A SS A v4]	217 nM	341 nM	382 nM	325 nM	381 nM
AAGGUCACUGCUACAGUGAUGUUGUGGGAGCAGGAUAUGCAGAAAUGCAGAAGGGCUCGCUCCAGGUGACCGAAUGAAACAUUCA [whbob_SS_FMNA__2th175]	1070 nM	826 nM	1500 nM	887 nM	1000 nM
AAGGUUGUGCAUGGGAGUGAUGUUCCCAAGCAGGAUAUCGCUCACGCGAGAAGGGCUAGCACAACCGCUCAAGAAACUUGAGCAA [Omei KL FMN A SS C v5]	121 nM	118 nM	147 nM	132 nM	120 nM
AAGUACACGAUAGUGUACACCUAGUGAUGUUAGGAUAUGCAGAUAUGCAGAAGGAACGAGUCAUCUGACAAUAGUCGGAUGACAA [FmnAX 8 #OpenEnded #K4Early]	564 nM	70.2 nM	100 nM	103 nM	82.4 nM
AAGUCUCGUUAAUUCGAGGUUGCGAUCGAUACCAGUAGCGAGAGGUACCCUUGGCAGCGAAGUGAGUGAUGUUCAUGAAAGAAGA [KL-XTheoA13]	59.8 nM	101 nM	107 nM	113 nM	68.6 nM
AAGUGUCAUUAGACACACUGAUGUAUAAACUAGGAUAUGCUGAUAAGCAGAAGGAGUGAUGUUCCUUUCAACAUCAGAAUUAAAU [KL-XFMN-A1]	270 nM	145 nM	155 nM	153 nM	126 nM
AAGUGUGUGGCGGCCGCCACUAGAAUCCAGUGAUGUUGGAGAUAUCUCGUAAGAGAUAUCCGCCAUAGGACCGGGCCAUAUAGAA [Same State - Tryptophan B (Freestyle 15)]	981 nM	720 nM	1260 nM	413 nM	771 nM
AAGUGUGUGGCGGCCGCCACUAGAAUCCAGUGAUGUUGGAGUAAUCAAAUAAAUGAUAAUCAACAUAGGACCGGGCCAUAUAGAA [Same State - Tryptophan B (Freestyle 3)]	345 nM	307 nM	349 nM	351 nM	309 nM
AAGUGUGUGGCGGCCGCCACUAGGAUCCAGUGAUGUUGGAGAUAUCUCGUAAGAGAUAUCCGCCAUAGGACCGGGCCAUAUAGAA [Same State - Tryptophan B (Freestyle 16)]	862 nM	423 nM	388 nM	161 nM	176 nM
AAGUGUGUGGCGGCCGCCACUAGUAUCCAGUGAUGUUGGAGAUAUCACGUAAGUGAUAUCCAACAUAGGACCGGGCCAUAUAGAA [Same State - Tryptophan B (Freestyle 17)]	145 nM	78.3 nM	101 nM	189 nM	93.1 nM
AAGUUUUAUAAACUCAUGGUUUCGACAGAUACCAGCUUCGAGAGGAGCCCUUGGCAGCUGCAUGAGUGAUGUUCAUGUACGAAGA [KL-XTheoA8]	377 nM	362 nM	480 nM	416 nM	359 nM
AAUAAAAUCACGGCCGCCACUGAUGCUAAUAUUGGCAGUGAUGUUGCUAUGUAUAUUUUAUUUGACAGGACCGGGUGAAUAUUUA [#24 K4 Tryptophan B Exclusion]	224 nM	198 nM	245 nM	263 nM	137 nM
AAUAAAAUCACGGCCGCCACUGAUGUUAAUAUUAGCAGUGAUGUUGCUAUGUCGUUUUUCUUUAACAGGACCGGGUGAAUAUUUA [#22 K4 Tryptophan B Exclusion]	156 nM	150 nM	170 nM	171 nM	148 nM
AAUAAAAUCACGGCCGCCACUGAUUAUUUUAUUAGGAGUGAUGUUCCUAUGACAGUAUGCCUUAACAGGACCGGGUGAAUAUUUA [#19 K4 Tryptophan B Exclusion]	122 nM	125 nM	144 nM	143 nM	156 nM
AAUAAGGUCGCCGAUACCAGCGCGGGCAGAGCAAAGCUCUGCCCGGUAGUGAUGUUACCGCGCCCUUGGCAGCGGUGGCACGACC [Omei KL Theo B SS C v6]	152 nM	58.3 nM	126 nM	159 nM	63.3 nM
AAUAAUAAUAAAUAUAGAUUGAUGAGCAAACGAGGACCGGUACGGCCGCCACUCGAGUGAUGUUCGAGAAGCUCAUCAAUCAUAA [AK4.6 Exc Tryptophan A]	180 nM	131 nM	141 nM	141 nM	372 nM
AAUAAUCUAGGUGAUACCAGCUCAACAUGAGUGAUGUUCGUGAGCUAAUGUAGAGUUGAGAGCCCUUGGCAGCACCUAGAUAAUA [KL-SSTheoB7]	698 nM	552 nM	943 nM	1140 nM	626 nM
AAUAUCUAGUAUAUUUUUAAUAAAACAGAUACCAGUGAUAAUAGACACCCUUGGCAGCUGGUCGAGUGAUGUUCGUUUAUUUUAA [JR_SSTheophyA_Sub005]	82.5 nM	79.5 nM	105 nM	168 nM	60 nM
AAUCAAUACAGAAGGAGCGUGACAGUUGCGAGUGUAAUUUUAGCUAGUGAUGUUAGCAUUUCACAGGUAGGUCGCUGUACAUUUA [#05 K4 Arginine B Same State]	115 nM	134 nM	133 nM	140 nM	105 nM
